Measured values as given in US11156558B2, “Assessment of stability of biological product in prefilled syringes” (Becton Dickinson France, priority 2016, dated 2021).

What was measured:
[1] = Stability of mimetic peptide solution stored in direct contact with adhesive and insoluble tungsten (UPLC/DAD); type: physicochemical; conditions: insoluble tungsten, 3 days at 70° C., ammonium acetate pH4 buffer (20 mM)+0.02% tween 80, 45 μg/ml
Experimental: (§1) Peptide solutions were analyzed by LC/DAD/MS with Quattro premier XE Mass spectrometer from Waters.
The AAHAA (SEQ ID NO: 2) peptide was dissolved in ammonium acetate pH4 buffer (20 mM)+0.02% of tween 80 to a final concentration of 45 μg/ml. The AAHAA (SEQ ID NO: 2) peptide solution was stored in direct contact with the adhesive used to stake the needle to the syringe and with insoluble tungsten, a potential process residue, for 3 days at 70° C.
FIG. 3 is AAHAA (SEQ ID NO: 2) peptide ULPC/DAD chromatograms after 3 days at 70° C. in direct contact with two syringe components: (a) adhesive and (b) insoluble tungsten. (c) is chromatogram references.

[2] = Stability of mimetic peptide solution stored in direct contact with plunger stoppers (UPLC/DAD/MS); type: physicochemical
Experimental: as §1
The peptide AAWAA (SEQ ID NO: 1) was dissolved in ammonium acetate pH4 buffer (20 mM)+0.02% Tween 80 to a final concentration of 45 μg/ml. The obtained AAWAA (SEQ ID NO: 1) peptide solutions were stored in direct contact with a non-coated and an ETFE coated plunger stoppers for 30 days at 25° C./60% RH.
FIG. 1 is a UPLC/DAD chromatogram of AAWAA (SEQ ID NO: 1) pentapeptide in direct contact with a coated and a non-coated plunger stopper after 15 days (c, d) and 30 days (a,b) of storage at 25° C./60% RH. Chromatograms e and f are AAWAA (SEQ ID NO: 1) solutions references (without any direct contact with plunger stoppers),
FIG. 2 is the electrospray positiv (ESI+) mass spectra of (a) intact AAWAA (SEQ ID NO: 1) peptide (Retention time of 17.2 min) and (b) oxidized form of AAWAA (SEQ ID NO: 1)(Retention time of 17.1 min) detected after 30 days (25° C.) of contact between the non-coated plunger stopper and AAWAA (SEQ ID NO: 1) peptide solution.

Row | Substance | reaction with syringe component (degradation) [1] | oxidized form (ESI+ mass spectra) ([2]; after 30 days (25° C.) of contact with the non-coated plunger stopper) | degradation yield ([2]; non-coated vs ETFE coated plunger stopper, direct contact, 30 days at 25° C./60% RH, ammonium acetate pH4 buffer (20 mM)+0.02% Tween 80, 45 μg/ml)
1 | Ala-Ala-His-Ala-Ala (AAHAA; synthesized pentapeptide) [mimetic model pentapeptide] | react with insoluble tungsten |  | 
2 | Ala-Ala-Trp-Ala-Ala (AAWAA; synthesized pentapeptide) [mimetic model pentapeptide] |  | detected | more important when the peptide is in direct contact with the non-coated plunger stopper
